# Assay results reported in patent US9371519B2, “Complex type sugar chain hydrolase” (National Institute of Advanced Industrial Science and …, priority 2011, dated 2016).
# Assay: Study of optimal reaction conditions (pH and temperature)
# Assay type: biochemical
# Settings: 10 μM NGA2-Asn-Fmoc; buffers pH 3.5-9.0
# Description: Study of the optimal reaction pH for Endo-Om was carried out as follows. A reaction solution containing any of various buffers having a final concentration of 100 mM, 0.5 M of NaCl, 10 μM of NGA2-Asn-Fmoc, and an Endo-Om purified enzyme solution (total volume: 10 μl) was incubated at 50° C. for 1 hour, and heated at 95° C. for 5 minutes, thereby stopping the enzyme reaction. The buffers used herein were a sodium citrate buffer (pH 3.5-5.5), a sodium acetate buffer (pH 4.5-6.0), a sodium phosphate buffer (pH 6.0-7.5), a MOPS-NaOH buffer (pH 6.5-8.0), and a Tris-HCl buffer (pH 8.0-9.0). The reaction solution was subjected to HPLC by the method described in Example 4, and the enzymatic activity was calculated. The optimal reaction temperature was studied by changing the reaction temperature in the activity measurement method described in Example 4 in the range of 10° C. to 60° C.
# (§1) Study of the optimal reaction pH for Endo-Cp was carried out as follows. A reaction solution containing any of various buffers having a final concentration of 100 mM, 0.5 M of NaCl, 10 μM of NGA2-Asn-Fmoc, and an Endo-Cp partially purified enzyme solution (total volume: 10 μl) was incubated at 30° C. for 3 hours, and heated at 95° C. for 5 minutes, thereby stopping the enzyme reaction. The buffers used herein were a sodium citrate buffer (pH 3.5-5.5), a sodium acetate buffer (pH 4.5-6.0), a sodium phosphate buffer (pH 6.0-7.5), a MOPS-NaOH buffer (pH 6.5-8.0), and a Tris-HCl buffer (pH 8.0-9.0). The reaction solution was subjected to HPLC by the method described in Example 8, and the enzymatic activity was calculated. The optimal reaction temperature was studied by changing the reaction temperature in the activity measurement method described in Example 8 in the range of 10° C. to 70° C.
# as §1, with “Endo-Pa” for “Endo-Cp”, “12,” for “8,”, “The optimal reaction temperature was studied by changing the reaction temperature in the activity measurement method described in Example 8 in the range of 10° C. to 70° C.” left out
# Study of the optimal reaction pH for Endo-Zr was carried out as follows. […] The reaction solution was subjected to HPLC by the method described in Example 16, and the enzymatic activity was calculated. […]
row,Molecule,Optimal pH (optimal reaction pH)
1,"Endo-Pa: endo-β-N-acetylglucosaminidase from Pichia anomala ATCC36904, amino acid sequence SEQ ID NO. 9, 656 amino acids (protein, listed as Pichia anomala) MQHDHAAIKFEEDSISSQRFSSLDEVEKWYNTKNRSPLDDLRIPRESLSHYNRFRDNNDEIKVLVCHDFKGNYQEGEDENPLGYFPHSSGQHYFIQFPSLVDLFIFFSHYKIAVPPVSWINSLHRQGIPVLGTLIFEGTDVSESDKLLEKNENGDFKYLEILCELVRHYGFDGWLVNMESHFSSVAKAQDLLLFDEALRSTLHLKVPGSKLIWYDSLITQKNRVFYQNAVNEWNYDHFSTSDLFFTNYWWNEEDLKRNILNIGLQGVKQKLFVGVDIWGRGSRIGNGGFESGLAINYLKRYSTNVALFAPAWTYENFEEDQFLIKDRKFWIGDQTSDETGGSVATYVSHYTTPVYVKDQNVKFYTNFSVGEGTKYRVFAHTVFKNNWVNGNLQLPTPIIDNEKRIDIYYKESFNGGSSLKVTQRNSILNDGKSNILQLFSFKNDIHSNNLNVSVSFKYLSEIPLNSTFQLEIKFYIERRYRSVTRVRDGTFKLPLAFSNKNWKYIETSFALPRLQIREHFVLEGLQIRWVDNVDELSSSIGTSGDFTESWIIVPQNSDPNAVYELLIGDLLVEGIKTANGNIDAVTKLSRKITLDSRSILATWKDDTEVLYWIIYVNAKFLGIAHKSLWRVQRGDKLRVDVFTRSGKLVKGEDIFI",5.0-5.5
2,"Endo-Om: endo-β-N-acetylglucosaminidase from methylotrophic yeast Ogataea minuta IFO10746, amino acid sequence SEQ ID NO. 1, 772 amino acids (protein, listed as Ogataea minuta) MAQSQLLGGAVRPVFFDKLEELRRWHTQSANLSRESELDSLNVATEPFSSYERAQTGSGSRSSEPVPGDKEDPPIKLMVCHDFKGGYQDYEDAQPLGYFPHPTGSRYFLQYPQLIDQFVYFSHHRVTVPPVNWINFCHRNGIKCFGTVIFEGNASKDFEELDRLVSRDEKGDFVFVDALIKLAAHYGFDGYLLNIETTFSNTKIAADLEPFAEQLKSGLHCLDSKNELIWYDSYVFPANKVSYTNGVTESNYNFFSLSDAFFSNYWWNIKNLQENIKNVGVLGVQKKIYVGYDVWGRGTLVGKGGFDSSLACKMIAKFKSNVALFAPAWTYESLGPKDFNQNDARFWIGLFENESSISSTVPPHSSAVYKINESSFIFYTNFSSGEGNRFFSKGSEVYRKNWVNGSLQFDLPIDLHRKDKNGLQWALDKSDAFHGGACLEIKYSEIKDENGYQIFNNQMVSDFTLFNFTKECHFPTVNVKVTYKLNHKTKSTFKIKIKYIIERRFRSVQTVRTGYLTIPLLSTSGKWFTVEESFQINLQTSHEYIVLESAHVTYDEDRSADSFFRSYIVEDSAITSVIDNEEYEKLINSEIYNDDEDEDWILVPSDVSISSSESQSNDSKTQYLGRKLFGNKSTPKTRTLEGTAPLLRIGEFAIISANNYPSSNFLAVTSVKSIESSRLEGDSLVLLNWQVGEGHQKGVCYYIIYVNGAVVGLSVAPKFIYQDTELASENSASARSNYKKSGLGSSSDRKSKVRVDSVDKLGNVFTGSEVWV",about 5.5
3,"Endo-Cp: endo-β-N-acetylglucosaminidase from Candida parapolymorpha DL-1 ATCC26012, amino acid sequence SEQ ID NO. 5, 745 amino acids (protein, listed as Candida parapolymorpha) MPRNTAKHSSLPQTNLPLSSLESSFFDSLDELANWERRIHEKSFELDELNKPTEKLAHYTRARQQSTSEDVKLLVCHDLKGGYQVNEDEDPLGYFPHPDGQHYFLQYPQLVDKFVYFSHHRVSIPPVSWINVCHRNAIKCLGTVIFEGNTYRDFEEADKLLTKQDGEYVFVRCLVALVEYFQFDGYLFNIETRFSNTRIASLLEPFLEQLRAELHVRNPSTELIWYDSYIYPENRVLYKNGVTEANYNFFSCCDSFFTNYWWNVKHLQDNIKNVGVLGSRLKVYAGYDVWGRGTMIGKGGYDSALACQMIKKYRSNVALFAPAWTYEYLARKDFTQNDTRFWIGLFDGESSMATTFKPYSSPLYKINDSNFVFYTNFGSGEGCAFYECGEKVYRDNWVNGSLQMEIPYAIHTRNKNGIQWTLSKEDSFHGGSCVEIKYNEVVDDKGYQVFNNQTINSFSLFSFVQDCSFPTVNVKLTYKLNHKTKSFFKLKIGYYIERRYRTVQKVRSGCLVVPLLSTNDQWFTIEEPFHVSLQNSHEFIVLDSATIFYEETEDPFMRAHVVEDQSTSSVIDNEEYEKLMNSEIYFDDEDEDWILVPSDISMESTDNGGRENHTWKVISNQIRKKHPKSHPSTSPVLKLGELAIINANDYPSDSFFKLMPVNSIDVRRWEGKILLIWKTNQDSVLYHLIFVDDVFQGISLVSKFVFEDQAVDEKSFKTKSGGSTKVRIDTVNRLGILVKGTDM",about 5.5
4,"Endo-Zr: endo-β-N-acetylglucosaminidase from Zygosaccharomyces rouxii ATCC2623, amino acid sequence SEQ ID NO. 13, 639 amino acids (protein, listed as Zygosaccharomyces rouxii) MKRINQVPGKPEITSLYFDDLNSLQRWFDKGFMDSRDLSNVPKERYSNYVKFEKDSIITIPNLSARKTEIIVCHDFKGGYQSGHDLYPNGQYGTESCKPYSLRYPEIVDKFVYFSHHCVTIPPSPWTNYLHRHSIPVLGTLILEHYPHNGELFKKNAKGEFLYVKYLVELCRKFHFEGWLINFETVFGNNSKQVIPFLRELTARVECEIYGGSVIWYDAFTTFSNKPSHQNEVNLFNYDAYENSSQFMTNYMWDSHNVGNSLRNVGALGMHSHVALGVDVWGRNMQVCRGGFESNIAIYYAKRFGTNAVIFAPGWTYENFGEDQFYEKDDIFWGNIKSTLQLDSYSDSQLSSWFVSESKKTRYFTTFFSTGSGNFFNLNGRRISNDNWVQLGLSTPFPVNSHSYLSFKDSFVGGSCLALPLSPMENGKLHLFRFEQFIKDQQKTSDSEIRVKLSYKSLGALPPVKLVIKCFVIRRGKRSKTILKVDDVSLVLPLSHSACQTAQGSTKWAVVEQIVPLPSLESRFLEEYYVEDAHLEWTMDNNHDEWLMVPERTEDLDCKLLIGSLCLEIGPHEDNNKRQIVRNGPQLSWQDNESSFMWLKLQDGKLDSVLFTPTTKVNGKQPTILECGRNGTLKFVVKK",4.5-5.0
